Assay results: PMC8782923, “A Klotho-derived peptide protects against kidney fibrosis by targeting TGF-β signaling” (Nature Communications, 2022)
“And” between values parts separate entries of the source, which are not always exact repeats. Equal values may be shown once.

Tested on: NRK-49F cells
Test: α-SMA mRNA induced by TGF-β1 in NRK-49F cells (qRT-PCR)
Assay type: cell-based, rat
Conditions: TGF-β1 2 ng/ml, KP1 or sKlotho 10 µg/ml, individual values, n = 4, Fig. 1b
Experimental: Normal rat kidney interstitial fibroblasts (NRK-49F) and human proximal tubular epithelial cells (HKC-8) were cultured at 37 °C. NRK-49F cells were serum-starved for 24 h and were pretreated with KP1 (10 µg/ml, 3 µM) for 1 h prior to incubation with TGF-β1 (#240-B; R&D Systems) at 2 ng/ml. Cells were collected at 45 min or 24 h after TGF-β1 treatment, respectively. Whole-cell lysates were prepared and subjected to Western blot analyses. For some experiments, cells were transiently transfected with expression vector human secreted Klotho (sKlotho) that only contains KL1 domain[48], by using Lipofectamine 2000 reagent (Invitrogen, Grand Island, NY) prior to treatment with TGF-β1.
Total RNA was isolated from NRK-49F cells by using a TRIzol RNA isolation system (Invitrogen, Carlsbad, CA). The cDNA was synthesized using 2 µg of RNA in 20 µl of reaction buffer containing AMV-RT (Promega, Madison, WI), random primers, and oligo primers at 42 °C for 60 min. Quantitative, real-time PCR (qRT-PCR) was performed using a Platinum SYBR Green qPCR Super Mix-UDG kit (Invitrogen). The sequences of the primer pairs: F: […]; R: […]. QPCR data were collected by Step one software v2.2.2.

B1: sKlotho: soluble Klotho; expression vector human secreted Klotho contains only KL1 domain (protein)
chain: EPGDGAQTWARFSRPPAPEAAGLFQGTFPDGFLWAVGSAAYQTEGGWQQHGKGASIWDTFTHHPLAPPGDSRNASLPLGAPSPLQPATGDVASDSYNNVFRDTEALRELGVTHYRFSISWARVLPNGSAGVPNREGLRYYRRLLERLRELGVQPVVTLYHWDLPQRLQDAYGGWANRALADHFRDYAELCFRHFGGQVKYWITIDNPYVVAWHGYATGRLAPGIRGSPRLGYLVAHNLLLAHAKVWHLYNTSFRPTQGGQVSIALSSHWINPRRMTDHSIKECQKSLDFVLGWFAKPVFIDGDYPESMKNNLSSILPDFTESEKKFIKGTADFFALCFGPTLSFQLLDPHMKFRQLESPNLRQLLSWIDLEFNHPQIFIVENGWFVSGTTKRDDAKYMYYLKKFIMETLKAIKLDGVDVIGYTAWSLMDGFEWHRGYSIRRGLFYVDFLSQDKMLLPKSSALFYQKLIEKNGFPPLPENQPLEGTFPCDFAWGVVDNYIQVSQLTKPISSLTKPYH
  α-SMA mRNA expression (relative): 10.7876 and 4.655 and 3.074 and 8.483
